Laboratory results as given in publication PMC8558179, “The C-terminal peptide of CCL21 drastically augments CCL21 activity through the dendritic cell lymph node homing receptor CCR7 by interaction with the receptor N-terminus” (Cellular and Molecular Life Sciences: CMLS, 2021).
“Also recorded” adds a separate entry of the source. One block for each molecule: values may come before it.

What was measured:
[1] = biological target: T1, CCR7^−O (CCR7 T37/38/42A) (Homo sapiens, UniProt P32248, T37A/T38A/T42A); experiment: Gαi signaling, BRET cAMP assay, CCR7 lacking N-terminal O-glycosylation sites; type: cell-based
T1 construct: CCR7 contains a 24-residue long signal peptide cleaved of from the mature protein; expressed in transfected cells; host or cells: CHO cells, transient transfection
T1 sequence (P32248 25-378 T37A/T38A/T42A): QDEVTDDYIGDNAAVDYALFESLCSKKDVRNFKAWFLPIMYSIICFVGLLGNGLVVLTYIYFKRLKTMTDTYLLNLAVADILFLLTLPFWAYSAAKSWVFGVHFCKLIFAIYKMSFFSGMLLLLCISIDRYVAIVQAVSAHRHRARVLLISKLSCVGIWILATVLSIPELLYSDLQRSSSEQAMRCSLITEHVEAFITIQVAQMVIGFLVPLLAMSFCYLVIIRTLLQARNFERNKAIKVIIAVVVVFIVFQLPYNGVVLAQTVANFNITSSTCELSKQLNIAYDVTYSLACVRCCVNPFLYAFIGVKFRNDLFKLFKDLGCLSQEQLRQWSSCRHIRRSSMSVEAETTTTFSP
Protocol: O-glycosylation deficient CCR7 was generated from WT through Quick change PCR using the following primers: […]
For cAMP assays, adherent CHO cells were transfected using lipofectamine while suspension cells were transfected using the FectoPro method. Cells were seeded in a 6-well plate, either 500,000 (adherent cells) or 200,000 (suspension cells) cells/well. The next day the cells were transiently transfected with vectors encoding the human CCR7 and CAMYEL sensor (cAMP sensor using YFP-Epac-RLuc) in a 1:5 ratio using lipofectamine (6 µl/well) or FectoPro (4 µl/well). Lipofectamine transfections were terminated by changing to 2 ml fresh cultivation medium after 5 h, while Fectopro transfection was terminated after 3 h by adding 2.5 ml fresh cultivation medium and 2 µl FectoPro Boost reagent per well. The cells were incubated under standard cultivation conditions overnight. For β-arrestin recruitment assays, cells were transfected with CCR7 and vectors expressing a Renilla luciferase arrestin3 fusion protein and membrane-SH3-citrine protein. The cells were then resuspended in PBS w/glucose and seeded in 96-well white iso plates (~ 25,000 cells/well). Coelenterazine (bioluminescence substrate) was added to a final conc. of 5 µM. After 10 min, cells were stimulated with varying ligand concentrations for a total of 40 min. Forskolin was added to each well 5 min after ligand addition to reach a final conc. of 5 µM. The plates were kept in the dark at all times. Emission signal from Rluc and eYFP was measured using the Envision machine at 530 and 480 nm and the BRET signal determined as the ratio between (eYFP/Rluc).

[2] = test system: CCR6; experiment: Gαi signaling, BRET cAMP assay at CCR6 in CHO cells; type: cell-based; conditions: CCL20 + 10 µM TP71-111, CHO cells, n = 3
Protocol: For cAMP assays, adherent CHO cells were transfected using lipofectamine while suspension cells were transfected using the FectoPro method. Cells were seeded in a 6-well plate, either 500,000 (adherent cells) or 200,000 (suspension cells) cells/well. The next day the cells were transiently transfected with vectors encoding the human CCR7 and CAMYEL sensor (cAMP sensor using YFP-Epac-RLuc) in a 1:5 ratio using lipofectamine (6 µl/well) or FectoPro (4 µl/well). Lipofectamine transfections were terminated by changing to 2 ml fresh cultivation medium after 5 h, while Fectopro transfection was terminated after 3 h by adding 2.5 ml fresh cultivation medium and 2 µl FectoPro Boost reagent per well. The cells were incubated under standard cultivation conditions overnight. […] Emission signal from Rluc and eYFP was measured using the Envision machine at 530 and 480 nm and the BRET signal determined as the ratio between (eYFP/Rluc).
Supplementary file 18_2021_3930_MOESM2_ESM.png: Supplementary file2 C21TP also boosts signaling of the DC expressed chemokine receptor CCR6. […] B) CCL20-induced CCR6 Gαi –signaling in CHO cells quantified using the BRET Based cAMP assay. […] Statistical significance was calculated using two-way ANOVA with Sidek’s correction for multiple test. *P<0.05, **P <0.01, ***P <0.001, ns, not significant (PNG 878 KB)

[3] = test system: CCR7 (primary T cells); conditions: heterologous competition binding, apparent affinity; cited from earlier work
Description: In the absence of peptide, CCL19 and CCL21 contact CCR7 in different manners. The interaction of CCL21 depends on residues in the top of TM-3, -4 and -5 that are not important for CCL19 interaction with CCR7. The binding of these two chemokines induce different structural changes in CCR7 to disrupt old and create new hydrogen bonds. CCL21 binding to CCR7 is believed to involve movements within the majority of helical domains (TM2, -3, -4, -5, -6, and -7), whereas the changes induced by CCL19 are restricted to regions of TM3, -5, and -6 [37]. The conformational changes in CCR7 ind ...

[4] = test system: CCL21; conditions: cited from earlier work
Description: Another phenomenon that could explain the C21TP boosting ability would be that the peptide was able to relieve the auto-inhibition of CCL21. The peptide could potentially occupy the site on CCL21 normally contacted by the attached basic C-terminus during the auto-inhibition process, in this way preventing the formation of the locked CCL21 version. In this way the peptide could participate in unfolding of CCL21, similar to the process that is predicted to take place in the presence of polysialic acid residues. The boosting effect of C21TP on CCL19 could also be based on a direct chemokin ...

[5] = test system: Collagen I; conditions: cited from earlier work
Description: In the current study we have used Collagen I in the 3D chemotaxis assays. Collagen I has low affinity for CCL21 [31]. Matrigel on the other hand binds CCL21 well. As CCL21 is immobilized in vivo [20], to evaluate the full effect of C21TP on dendritic cell migration, experiments using Matrigel would need to be conducted. Such assay could reveal if C21TP affect the interaction between CCR7 and immobilized CCL21 where the basic tail is participating in surface tethering and potentially unable to engage in steric hindrance of CCR7. Again, since boosting of in vitro signaling occurred in both p ...

- boosting of CCL19 signaling by C21TP at CCR7^−O ([1]; CCL19 + 10 µM TP71-111, CCR7^−O vs WT CCR7): diminished
Molecule: TP71-111: free CCL21 C-terminal peptide, residues 71–111 (41 amino acids, positively charged) (PSPQKPAQGCRKDRGASKTGKKGKGSKGCKRTERSQTPKGP; UniProt O00585 94-134, looked up, fragment)
- boosting of CCL20-induced signaling at CCR6 [2]: very similar to the boosting observed with CCL19 acting at CCR7
- boosting of CCL20-induced signaling at CCR6 ([2]; listed as C21TP): also boosts CCL20 signaling via CCR6

B1: CCL21: full-length chemokine (residues 1–111), CCR7 ligand, from R&D Systems (protein, UniProt O00585 24-134, looked up)
C-C motif chemokine 21: SDGGAQDCCLKYSQRKIPAKVVRSYRKQEPSLGCSIPAILFLPRKRSQAELCADPKELWVQQLMQHLDKTPSPQKPAQGCRKDRGASKTGKKGKGSKGCKRTERSQTPKGP
- chemokine activity on its own at CCR7^−O ([1]; no peptide, CCR7^−O vs WT CCR7): almost unaffected; also recorded: without affecting basal CCR7 activation via CCL19 and CCL21
- fold lower binding affinity of CCL21 in primary T cells [3]: sixfold lower binding affinity
- CCL21 self-association [4]: weak and only detectable at mM concentrations
- affinity of Collagen I for CCL21 [5]: low affinity
